Data published in PMC7994712 (Nature Communications, 2021).
Entries after “also recorded” stand apart in the source; their conditions may differ. Like-named read-outs stand apart in the source and are kept apart here. Each block holds one molecule with its values, some of them ahead of it. Bridges are numbered along the chain shown (N, C = ends). Where no end group is shown, it is not given here.

Experiments:
SSTR1 = molecular target: T1, SSTR1 (Homo sapiens, UniProt P30872); test: Radio-ligand binding assay, SSTR1
T1 construct: host or cells: CHO-K1
T1 sequence (P30872 whole entry): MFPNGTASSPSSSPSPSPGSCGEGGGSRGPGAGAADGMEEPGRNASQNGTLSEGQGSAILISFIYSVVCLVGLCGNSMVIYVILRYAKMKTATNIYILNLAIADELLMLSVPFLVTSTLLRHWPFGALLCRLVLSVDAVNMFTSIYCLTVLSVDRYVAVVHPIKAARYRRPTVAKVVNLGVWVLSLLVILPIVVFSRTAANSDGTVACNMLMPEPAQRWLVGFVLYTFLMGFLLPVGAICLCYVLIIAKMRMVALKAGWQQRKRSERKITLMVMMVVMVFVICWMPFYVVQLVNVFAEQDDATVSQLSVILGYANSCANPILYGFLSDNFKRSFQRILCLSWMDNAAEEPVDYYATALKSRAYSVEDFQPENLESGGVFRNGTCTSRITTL
Method: (§1) Graphical and tabular representation of the percentage inhibition of specific binding, as IC50 (nM) binding values for the analogues against the five SSTR1-SSTR5 is represented in Supplementary Fig. 1b and Supplementary Table 1. […] IC50 values were determined by a non-linear, least squares regression analysis using Prism 9 (GraphPad Software, USA), using the Dose-response inhibition (three-parameters) model. […]
(§2) (SSTR1-SSTR5), using a Radio-ligand Binding Assay (Supplementary Figure 1b). Cells were incubated in HEPES buffer pH 7.4 with the new analogues of Cortistatin at 10 different concentrations in a range […]
(§3) specifically bound (performed at Eurofins Panlabs, Inc.). The radioactivity obtained in the absence of SST14 is considered as total binding and that obtained in the presence of 1 µM of SST14 is considered as nonspecific binding. Specific binding was considered as the difference between total and nonspecific.
(§4) Biochemical assay results are presented as the percent inhibition of specific bindin g (% inhib ition) as a […]
(§5) part of each binding assay with the five (SSTR1 -SS T R5 ) . I C50 values were determined by a non-linear, least squares regression analysis using Prism 9 (GraphPad Software, USA), using the Dose -response inhibit ion (t hree-parameters) model.

SSTR2 = molecular target: T2, SSTR2 (Homo sapiens, UniProt P30874); test: Radio-ligand binding assay, SSTR2
T2 construct: host or cells: CHO-K1
T2 sequence (P30874 whole entry): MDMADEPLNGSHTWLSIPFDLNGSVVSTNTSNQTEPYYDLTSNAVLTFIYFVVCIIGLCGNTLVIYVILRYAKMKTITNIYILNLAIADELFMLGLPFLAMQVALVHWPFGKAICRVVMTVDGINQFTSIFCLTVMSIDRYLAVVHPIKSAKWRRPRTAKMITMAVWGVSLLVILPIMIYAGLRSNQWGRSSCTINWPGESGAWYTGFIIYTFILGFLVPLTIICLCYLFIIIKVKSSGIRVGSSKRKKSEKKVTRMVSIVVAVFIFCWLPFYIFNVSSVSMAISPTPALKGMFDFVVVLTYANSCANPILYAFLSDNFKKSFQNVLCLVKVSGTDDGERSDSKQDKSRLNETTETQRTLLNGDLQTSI
Method: as §1, §2, §3, §4, §5

SSTR3 = molecular target: T3, SSTR3 (Homo sapiens, UniProt P32745); test: Radio-ligand binding assay, SSTR3
T3 construct: host or cells: CHO-K1
T3 sequence (P32745 whole entry): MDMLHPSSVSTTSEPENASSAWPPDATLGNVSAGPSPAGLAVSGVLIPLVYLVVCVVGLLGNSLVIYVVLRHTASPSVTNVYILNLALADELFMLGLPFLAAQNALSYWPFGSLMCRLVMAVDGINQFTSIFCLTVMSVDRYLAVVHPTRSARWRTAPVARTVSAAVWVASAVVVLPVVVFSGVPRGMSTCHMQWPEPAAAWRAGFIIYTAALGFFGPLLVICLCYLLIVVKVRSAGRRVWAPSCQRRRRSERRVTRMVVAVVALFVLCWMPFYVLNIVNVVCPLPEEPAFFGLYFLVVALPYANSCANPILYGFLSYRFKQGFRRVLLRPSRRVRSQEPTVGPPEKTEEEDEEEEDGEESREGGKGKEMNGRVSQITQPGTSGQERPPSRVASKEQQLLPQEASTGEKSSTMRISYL
Method: as §1, §2, §3, §4, §5

[1] = Aqueous solubility (observed on sample preparation); format: physicochemical; conditions: aqueous buffer solution; observation in words
From the text: For instance, it is well known that substitution of L-Trp to D-Trp increases the population of the native β-turn and of and the analogue half-life in serum. […] For these reasons, in all the CST analogues, L-Trp was replaced by D-Trp in position 7 and Ser11 was replaced by Thr11 to stabilise the β-turn; and either Phe6 or Phe5 were replaced by Msa (analogues 2 and 4; Fig. 1c). In addition to these modifications, terminal residues were acylated as N-octanoyl amides (analogues 3 and 5). The reasoning behind this modification was to increase the hydrophobicity of the analogue and mimic a similar modification to that observed in ghrelin, a neuropeptide produced by endocrine cells in the digestive tract and that shares with CST the ability to interact with the growth hormone secretagogue receptor GHSR-1a[28].
We also characterised the conformational properties of analogues 2, 3 and 4. […] In these cases (Fig. 8a–c), the aromatic residues 5 and 10 align on one side of the molecule, whereas the side chain of residue 6 is located on the other side of the peptide plane. In this conformation, D-Trp7 is close to the pair of aromatic rings 5 and 10, due to the presence of weak NOEs involving the ring protons of D-Trp7 and the methyl protons of Msa5. […]

[2] = molecular target: Somatostatin receptor 3 (SSTR3) (human), P32745; conditions: N-octanoyl amide on the N-terminal residue; L-mesityl alanine (Msa) at position 6; D-Trp at position 7; disulfide bridge between the two cysteines
Chain of Somatostatin receptor 3 (SSTR3) (human), P32745 (P32745 whole entry): as above

[3] = molecular target: Somatostatin receptor 1 (SSTR1) (human), P30872; conditions: N-octanoyl amide on the N-terminal residue; L-mesityl alanine (Msa) at position 6; D-Trp at position 7; disulfide bridge between the two cysteines
Chain of Somatostatin receptor 1 (SSTR1) (human), P30872 (P30872 whole entry): as the sequence (P30872 whole entry) above

[4] = molecular target: Somatostatin receptor 5 (SSTR5) (human), P35346; conditions: N-octanoyl amide on the N-terminal residue; L-mesityl alanine (Msa) at position 6; D-Trp at position 7; disulfide bridge between the two cysteines
Chain of Somatostatin receptor 5 (SSTR5) (human), P35346 (P35346 whole entry): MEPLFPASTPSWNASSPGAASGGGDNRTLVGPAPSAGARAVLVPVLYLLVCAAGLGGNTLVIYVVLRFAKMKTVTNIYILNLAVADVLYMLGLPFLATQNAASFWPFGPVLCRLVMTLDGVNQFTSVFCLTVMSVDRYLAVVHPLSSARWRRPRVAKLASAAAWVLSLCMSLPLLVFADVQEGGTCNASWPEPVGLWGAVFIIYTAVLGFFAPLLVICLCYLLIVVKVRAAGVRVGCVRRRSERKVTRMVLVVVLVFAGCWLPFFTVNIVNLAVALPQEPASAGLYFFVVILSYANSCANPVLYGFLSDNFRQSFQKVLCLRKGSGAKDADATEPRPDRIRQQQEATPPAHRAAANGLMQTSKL

[5] = molecular target: Somatostatin receptor 2 (SSTR2) (human), P30874; conditions: N-octanoyl amide on the N-terminal residue; L-mesityl alanine (Msa) at position 6; D-Trp at position 7; disulfide bridge between the two cysteines
Chain of Somatostatin receptor 2 (SSTR2) (human), P30874 (P30874 whole entry): as the sequence (P30874 whole entry) above

[6] = molecular target: Somatostatin receptor 1 (SSTR1) (human), P30872; test: competition with 125I-Tyr11 SST14; conditions: D-Trp at position 7, disulfide bridge between the two cysteines
[7] = molecular target: Somatostatin receptor 2 (SSTR2) (human), P30874; test: competition with 125I-Tyr11 SST14; conditions: D-Trp at position 7, disulfide bridge between the two cysteines
[8] = molecular target: Somatostatin receptor 3 (SSTR3) (human), P32745; test: competition with 125I-Tyr11 SST14
[9] = molecular target: Somatostatin receptor 5 (SSTR5) (human), P35346; test: competition with 125I-Tyr11 SST14; conditions: D-Trp at position 7, disulfide bridge between the two cysteines
[10] = molecular target: Somatostatin receptor 3 (SSTR3) (human), P32745; conditions: L-mesityl alanine (Msa) in place of Phe5; D-Trp at position 7; disulfide bridge between the two cysteines
[11] = molecular target: Somatostatin receptor 1 (SSTR1) (human), P30872; conditions: L-mesityl alanine (Msa) in place of Phe5; D-Trp at position 7; disulfide bridge between the two cysteines
[12] = molecular target: Somatostatin receptor 5 (SSTR5) (human), P35346; conditions: L-mesityl alanine (Msa) in place of Phe5; D-Trp at position 7; disulfide bridge between the two cysteines
[13] = molecular target: Somatostatin receptor 2 (SSTR2) (human), P30874; conditions: L-mesityl alanine (Msa) in place of Phe5; D-Trp at position 7; disulfide bridge between the two cysteines
[14] = molecular target: Somatostatin receptor 3 (SSTR3) (human), P32745; conditions: octanoyl moiety at the N-terminus (N-octanoyl amide); L-mesityl alanine (Msa) at position 5; D-Trp at position 7; disulfide bridge between the two cysteines
[15] = molecular target: Somatostatin receptor 1 (SSTR1) (human), P30872; conditions: octanoyl moiety at the N-terminus (N-octanoyl amide); L-mesityl alanine (Msa) at position 5; D-Trp at position 7; disulfide bridge between the two cysteines
[16] = molecular target: Somatostatin receptor 5 (SSTR5) (human), P35346; conditions: octanoyl moiety at the N-terminus (N-octanoyl amide); L-mesityl alanine (Msa) at position 5; D-Trp at position 7; disulfide bridge between the two cysteines
[17] = molecular target: Somatostatin receptor 2 (SSTR2) (human), P30874; conditions: octanoyl moiety at the N-terminus (N-octanoyl amide); L-mesityl alanine (Msa) at position 5; D-Trp at position 7; disulfide bridge between the two cysteines
[18] = molecular target: Somatostatin receptor 3 (SSTR3) (human), P32745; conditions: L-mesityl alanine (2,4,6-trimethylphenylalanine, Msa) in place of Phe6; D-Trp at position 7; disulfide bridge between the two cysteines
[19] = molecular target: Somatostatin receptor 1 (SSTR1) (human), P30872; conditions: L-mesityl alanine (2,4,6-trimethylphenylalanine, Msa) in place of Phe6; D-Trp at position 7; disulfide bridge between the two cysteines
[20] = molecular target: Somatostatin receptor 5 (SSTR5) (human), P35346; conditions: L-mesityl alanine (2,4,6-trimethylphenylalanine, Msa) in place of Phe6; D-Trp at position 7; disulfide bridge between the two cysteines
[21] = molecular target: Somatostatin receptor 2 (SSTR2) (human), P30874; conditions: L-mesityl alanine (2,4,6-trimethylphenylalanine, Msa) in place of Phe6; D-Trp at position 7; disulfide bridge between the two cysteines
[22] = molecular target: Somatostatin receptor 1 (SSTR1) (human), P30872; conditions: chains peptide; internal disulfide bond between the two cysteines (cyclic peptide)
[23] = molecular target: Somatostatin receptor 5 (SSTR5) (human), P35346; conditions: chains peptide; internal disulfide bond between the two cysteines (cyclic peptide)
[24] = molecular target: Somatostatin receptor 4 (SSTR4) (human), P31391; conditions: chains peptide; internal disulfide bond between the two cysteines (cyclic peptide)
Chain of Somatostatin receptor 4 (SSTR4) (human), P31391 (P31391 whole entry): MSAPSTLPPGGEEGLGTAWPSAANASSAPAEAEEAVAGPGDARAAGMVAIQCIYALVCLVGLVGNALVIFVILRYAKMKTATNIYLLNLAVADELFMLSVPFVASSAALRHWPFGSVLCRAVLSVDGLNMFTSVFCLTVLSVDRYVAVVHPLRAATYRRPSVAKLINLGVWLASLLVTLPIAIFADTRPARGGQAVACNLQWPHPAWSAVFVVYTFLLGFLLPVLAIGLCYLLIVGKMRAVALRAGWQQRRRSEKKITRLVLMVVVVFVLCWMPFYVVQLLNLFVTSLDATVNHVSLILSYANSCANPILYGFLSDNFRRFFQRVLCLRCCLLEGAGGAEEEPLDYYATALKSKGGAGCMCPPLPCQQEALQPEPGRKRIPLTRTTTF

[25] = molecular target: Somatostatin receptor 2 (SSTR2) (human), P30874; conditions: chains peptide; internal disulfide bond between the two cysteines (cyclic peptide)
[26] = N-octanoyl amide on the N-terminal residue, L-mesityl alanine (Msa) at position 6
[27] = L-mesityl alanine (Msa) in place of Phe5
[28] = octanoyl moiety at the N-terminus (N-octanoyl amide), L-mesityl alanine (Msa) at position 5
[29] = L-mesityl alanine (2,4,6-trimethylphenylalanine, Msa) in place of Phe6

cleaved bond: Cys13-L-Lys14, major
Molecule: PCKNFFWKTFSSCK

IC50 (SSTR1): 14.1 nM
IC50 (SSTR2): 0.42 nM
IC50 (SSTR3): 16 nM
Molecule: Cc1cc(C)c(C[C@@H]2NC(=O)[C@H](Cc3ccccc3)NC(=O)[C@H](CC(N)=O)NC(=O)[C@H](CCCCN)NC(=O)[C@@H](NC(=O)[C@@H]3CCCN3)CSSC[C@@H](C(=O)N[C@@H](CCCCN)C(=O)O)NC(=O)[C@H](CO)NC(=O)[C@H]([C@@H](C)O)NC(=O)[C@H](Cc3ccccc3)NC(=O)[C@H]([C@@H](C)O)NC(=O)[C@H](CCCCN)NC(=O)[C@@H](Cc3c[nH]c4ccccc34)NC2=O)c(C)c1 [A2]

Molecule: CCCCCCCC(=O)N1CCC[C@H]1C(=O)N[C@H]1CSSC[C@@H](C(=O)O)NC(=O)[C@H](CO)NC(=O)[C@H]([C@@H](C)O)NC(=O)[C@H](Cc2ccccc2)NC(=O)[C@H]([C@@H](C)O)NC(=O)[C@H](CCCCN)NC(=O)[C@@H](Cc2c[nH]c3ccccc23)NC(=O)[C@H](Cc2ccccc2)NC(=O)[C@H](Cc2c(C)cc(C)cc2C)NC(=O)[C@H](CC(N)=O)NC(=O)[C@H](CCCCN)NC1=O [analogue 6]
aqueous solubility [1]: reduced its aqueous solubility; also recorded: significant impact on the solubility of the sample

IC50 (SSTR2): 2.8 nM
Molecule: CCCCCCCC(=O)N1CCC[C@H]1C(=O)N[C@H]1CSSC[C@@H](C(=O)N[C@@H](CCCCN)C(=O)O)NC(=O)[C@H](CO)NC(=O)[C@H]([C@@H](C)O)NC(=O)[C@H](Cc2ccccc2)NC(=O)[C@H]([C@@H](C)O)NC(=O)[C@H](CCCCN)NC(=O)[C@@H](Cc2c[nH]c3ccccc23)NC(=O)[C@H](Cc2c(C)cc(C)cc2C)NC(=O)[C@H](Cc2ccccc2)NC(=O)[C@H](CC(N)=O)NC(=O)[C@H](CCCCN)NC1=O [A3]

IC50 [2]: 100 nM
IC50 [3]: > 300 nM
IC50 [4]: > 300 nM
IC50 [5]: 2.8 nM
IC50 [6, 26]: > 300 nM
IC50 [7, 26]: 2.8 nM
IC50 ([8]; N-octanoyl amide on the N-terminal residue, L-mesityl alanine (Msa) at position 6, D-Trp at position 7, disulfide bridge between the two cysteines): 100 nM
IC50 [9, 26]: > 300 nM
Molecule: PCKNFFWKTFTSCK [Cortistatin analogue 3]

IC50 [10]: 1.8 nM
IC50 [11]: 14.7 nM
IC50 [12]: 4 nM
IC50 [13]: 9.8 nM
IC50 [6, 27]: 14.7 nM
IC50 [7, 27]: 9.8 nM
IC50 ([8]; L-mesityl alanine (Msa) in place of Phe5, D-Trp at position 7, disulfide bridge between the two cysteines): 1.8 nM
IC50 [9, 27]: 4 nM
Molecule: PCKNFFWKTFTSCK [Cortistatin analogue 4]

IC50 [14]: 5.1 nM
IC50 [15]: 47.3 nM
IC50 [16]: 1.12 nM
IC50 [17]: 35 nM
IC50 [6, 28]: 47.3 nM
IC50 [7, 28]: 35 nM
IC50 ([8]; octanoyl moiety at the N-terminus (N-octanoyl amide), L-mesityl alanine (Msa) at position 5, D-Trp at position 7, disulfide bridge between the two cysteines): 5.1 nM
IC50 [9, 28]: 1.12 nM
Molecule: PCKNFFWKTFTSCK [Cortistatin analogue 5]

IC50 [18]: 16 nM
IC50 [19]: 14.1 nM
IC50 [20]: 33 nM
IC50 [21]: 0.42 nM
IC50 [6, 29]: 14.1 nM
IC50 [7, 29]: 0.42 nM
IC50 ([8]; L-mesityl alanine (2,4,6-trimethylphenylalanine, Msa) in place of Phe6, D-Trp at position 7, disulfide bridge between the two cysteines): 16 nM
IC50 [9, 29]: 33 nM
Molecule: PCKNFFWKTFTSCK [Cortistatin analogue 2]

IC50 [22]: 1.7 nM
IC50 [23]: 0.3 nM
IC50 [24]: 0.2 nM
IC50 [25]: 0.09 nM
IC50 ([8]; chains peptide, internal disulfide bond between the two cysteines (cyclic peptide)): 0.3 nM
Molecule: PCKNFFWKTFSSCK (disulfide 2-13 (inferred)) [Cortistatin-14 (r,mCST-14), Q62949 99-112]
